Entries after “also recorded” stand apart in the source; their conditions may differ.

In experiment [1] the test system is BMMs. Briefly: Bone-resorption assay (Osteo Assay Surface plates). Type of experiment: cell-based, mouse. As to conditions: 6 days, mRANKL-MT3 150 ng/mL. Here is the method:
We used bone-resorption and F-actin ring formation assays to investigate osteoclast activity. To observe bone resorption in vitro, BMMs were cultured in Corning Osteo Assay Surface 96-well Multiple Well Plates (Sigma) with 30 ng/mL M-CSF and 75 ng/mL sRANKL (soluble RANKL; R&D Systems) or isolated RANKL for 6 days. Then, the plates were washed with pure water. To monitor actin ring formation, BMMs were grown on glass slides. After culture, the cells were fixed with 4% formalin, permeabilized with 0.5% Triton X100 in PBS for 5 min at room temperature, and incubated with 0.5 mg/mL TRITC-labelled phalloidin for 30 min. The cells were then rinsed with PBS. F-actin rings were visualized using a fluorescence ECLIPSE Ts2R microscope (Nikon, Tokyo, Japan).

Experiment [2] relates to bone marrow-derived monocytes (BMMs). Briefly: TRAP analysis of osteoclastogenesis induced by RANKL variants in BMMs. Type of experiment: cell-based, mouse. As to conditions: RANKL-treated primary BMM; listed as mtRANKL. Here is the method:
The RANKL-RANK binding sites are K180, D189, R190, H223, H224, which are conserved between humans and mice. We selected 4 mutant RANKLs to be purified. Their size corresponded to the wild type RANKL (39 kDa) (FIG. 2B). Tartrate-resistant acid […] (TRAP) activity was absent for all RANKLs even at 150 ng/mL (FIG. 2C, D).
4-week old male BALB/c mice were purchased from Orient Bio (Gwangju, Korea) and kept in an animal facility approved by the Chosun University Animal Management Committee (IACUC2017-A0002). After obtaining bone marrow cells from mice, bone marrow mononuclear cells were seeded into 96-well plates (1 Y 10^4 cells/well), and in the absence or presence of various concentrations of compounds, incubated with M-CSF (100 ng/mL) overnight before stimulation with RANKL (50 ng/well). The medium was replaced every other days. 6 days later, the cells were fixed with 4% paraformaldehyde, permeated in 0.1% Triton X-100, and washed with PBS. Then, TRAP activity (Sigma-Aldrich, St. Louis, Mo., USA) staining was performed. TRAP-positive multinuclear cells containing 5 or more nuclei were counted as osteoclasts.
To evaluate the effect of mtRANKL on osteoclastogenesis, TRAP analysis was performed on RANKL-treated primary bone marrow-derived macrophages (BMM) by the method described in Reference Example 2, and the results are shown in FIGS. 4B and 4C.

B1: mRANKL-MT3: mouse RANKL mutant: K180R, D189I, R190K, H223F, H224Y; nucleic acid SEQ ID NO: 3 (protein, UniProt O35235 158-316, looked up, variant K180R D189I R190K H223F H224Y)
chain: KPEAQPFAHLTINAASIPSGSHRVTLSSWYHIKGWAKISNMTLSNGKLRVNQDGFYYLYANICFRFYETSGSVPTDYLQLMVYVVKTSIKIPSSHNLMKGGSTKNWSGNSEFHFYSINVGGFFKLRAGEEISIQVSNPSLLDPDQDATYFGAFKVQDID
Consider B1, for which the resorption pits entry in experiment [1] is “no resorption pits”. In experiment [2], the “number of TRAP-positive multinuclear osteoclasts / osteoclast differentiation” value is recorded as “did not induce osteoclast differentiation; also recorded: led to a reduction of TRAP-positive cells”.

Source of the values: patent US20210403586A1, “MUTANT OF RANKL AND PHARMACEUTICAL COMPOSITION COMPRISING SAME FOR PREVENTING OR TREATING OSTEOPOROSIS” (INDUSTRY-ACADEMIC COOPERATION FOUNDATION CHOSUN UNIVERSITY, priority 2018, published 2021).
